Residue numbers refer to the chain shown, from its start.
T1: Eimeria tenella MIC2 (Eimeria tenella)
T1 construct: Recombinant antigen coated on ELISA wells; also called EtMIC2
T1 chain: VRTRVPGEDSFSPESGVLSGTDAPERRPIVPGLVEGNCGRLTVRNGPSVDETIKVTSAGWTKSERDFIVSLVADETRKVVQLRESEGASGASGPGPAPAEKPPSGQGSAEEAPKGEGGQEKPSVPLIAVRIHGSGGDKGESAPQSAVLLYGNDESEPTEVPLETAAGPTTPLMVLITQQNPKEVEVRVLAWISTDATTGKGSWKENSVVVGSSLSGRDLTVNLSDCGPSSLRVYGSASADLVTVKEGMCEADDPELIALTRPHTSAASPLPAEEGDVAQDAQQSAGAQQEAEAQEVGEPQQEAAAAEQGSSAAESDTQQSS

B1: NBX0726 (VHH)
VHH: QVQLQQSGGGLVQAGGSVRLSCTANGLTFGNYAMAWFRRTPGKERAFVGGMSASGAGTYYLDSVKGRFTISRDTAKNTVYLEMNSLKAEDTAVYYCAANSIYPGRRWASYDYWGQGTQVTVSS
B2: NBX0727 (VHH)
VHH: QVQLQQSGGGLVQAGGSVRLSCAASGLTLGNYALAWFRRTPGKEREFVAGMSGSGAGTYYLDSVNGRFTISRDNAKNTLYLQMNSLKAEDTAVYYCAANSIYPGRRWASYDYWGQGTQVTVSS
B3: NBX0749 (VHH)
VHH: QVQLQESGGGLVQAGGSLRLSCATSGSIFSRDTMAWYRQVPGEQRELVAYITNFGGTNHADSVKGRFTISRDNAKNTVYLQMNSLKPEDTAVYYCAAGLLSLRTHTWEYWGQGTQVTVSS
B4: NBX0748 (VHH)
VHH: B3 VHH with A23V, T24A, T104S, Y109L
B5: NBX0728 (VHH)
VHH: B3 VHH with T24A, G26A, I51V, G98D, L100I
B6: NBX17024 (VHH)
VHH: QVQLQESGPGLVKPSQTLSLTCTVSGGSITTSYSTWSWIRQPPGKGLEWMGVIADDGSAEYSPSLKSRTSISLDTSKNQFSLQLSSVTPEDTAVYYCARRGGAWGSNWWAYHMDDWGKGTLVTVSS

Experiments:
Eimeria tenella MIC2 = molecular target: T1, Eimeria tenella MIC2; assay: phage ELISA, antigen-coated wells;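 also: antigen dissolved in PBS and coated onto wells, with negative-control wells holding PBS alone as the reference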
Description: Black bars show binding to wells coated with the antigen specified in Tables 1 and 2 dissolved in phosphate-buffered saline (PBS). Grey bars are negative controls that show binding to wells coated with PBS only.

[1] = molecular target: T2, GST fusion of the EmAMA1-binding peptide of EmRON2 (Eimeria maxima, UniProt P08515 1-218 = GST); assay: phage ELISA, wells coated with GST-RON2 peptide
T2 construct: Expressed in E. coli, purified as the other antigens but without TEV cleavage, so a His tag and TEV site probably remain; also called GST-RON2 peptide
T2 sequence (P08515 1-218, tags or fused parts left off): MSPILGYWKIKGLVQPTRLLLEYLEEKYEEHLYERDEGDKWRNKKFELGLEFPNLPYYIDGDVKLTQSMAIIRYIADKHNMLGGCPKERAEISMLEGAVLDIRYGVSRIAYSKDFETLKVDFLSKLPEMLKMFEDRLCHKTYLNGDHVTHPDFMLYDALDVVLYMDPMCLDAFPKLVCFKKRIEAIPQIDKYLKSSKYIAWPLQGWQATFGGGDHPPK

Binder	binding relative to PBS-coated wells (Eimeria tenella MIC2) [times]	binding relative to GST-coated wells [1] [times]	binding relative to PBS-coated wells [1] [times]
B1	≥ 4		
B2	≥ 4		
B3	≥ 4		
B4	≥ 4		
B5	≥ 4		
B6		≥ 3	≥ 4

Source: patent US20220242941A1 (NOVOBIND LIVESTOCK THERAPEUTICS, published 2022)
